The values that follow are results of earlier work, collected in paper PMC10570509.

For the series, the target named is OSMRβ (Homo sapiens) (UniProt Q99650).
Sequence of UniProt Q99650 (Q99650 28-740): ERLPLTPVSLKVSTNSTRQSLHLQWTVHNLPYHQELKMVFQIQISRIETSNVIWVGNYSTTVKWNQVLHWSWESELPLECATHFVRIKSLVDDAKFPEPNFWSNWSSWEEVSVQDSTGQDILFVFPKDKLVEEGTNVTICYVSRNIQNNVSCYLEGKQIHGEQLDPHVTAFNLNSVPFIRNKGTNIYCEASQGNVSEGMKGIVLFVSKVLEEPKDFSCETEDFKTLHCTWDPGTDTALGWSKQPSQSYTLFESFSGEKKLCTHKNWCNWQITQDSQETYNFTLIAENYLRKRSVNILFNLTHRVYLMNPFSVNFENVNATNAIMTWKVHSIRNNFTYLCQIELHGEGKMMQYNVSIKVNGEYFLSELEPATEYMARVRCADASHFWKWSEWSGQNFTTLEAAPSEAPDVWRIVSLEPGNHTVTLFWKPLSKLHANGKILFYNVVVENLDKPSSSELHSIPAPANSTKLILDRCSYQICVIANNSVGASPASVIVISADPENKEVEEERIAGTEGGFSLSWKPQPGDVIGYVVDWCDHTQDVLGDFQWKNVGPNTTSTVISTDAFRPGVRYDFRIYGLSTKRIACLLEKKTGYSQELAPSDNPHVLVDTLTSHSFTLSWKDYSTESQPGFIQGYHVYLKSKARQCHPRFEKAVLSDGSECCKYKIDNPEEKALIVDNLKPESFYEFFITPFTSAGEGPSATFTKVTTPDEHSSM

Turning to Oncostatin M (from UniProt P13725), the Kd was 150 pM.

As a reminder, the Kd is the free concentration of one partner at which half of the binding sites on the other are occupied at equilibrium, for simple one-to-one binding.
